Drawing on article PMC5636616, “Studies on the Interaction of the Histone Demethylase KDM5B with Tricarboxylic Acid Cycle Intermediates” (Journal of Molecular Biology, 2017), this text covers Km for one protein.

Values joined by “and” are separate entries in the source; they are usually repeats but may differ in a detail not shown here. Identical values can stand only once.

Substrate in this data set: O=C(O)CCC(=O)C(=O)O
Description: purified protein, by the assay type. The note with it: pH 7.5, 25.0 °C.

B1: KDM5B (Homo sapiens) (protein)
chain: MEAATTLHPGPRPALPLGGPGPLGEFLPPPECPVFEPSWEEFADPFAFIHKIRPIAEQTGICKVRPPPDWQPPFACDVDKLHFTPRIQRLNELEAQTRVKLNFLDQIAKYWELQGSTLKIPHVERKILDLFQLNKLVAEEGGFAVVCKDRKWTKIATKMGFAPGKAVGSHIRGHYERILNPYNLFLSGDSLRCLQKPNLTTDTKDKEYKPHDIPQRQSVQPSETCPPARRAKRMRAEAMNIKIEPEETTEARTHNLRRRMGCPTPKCENEKEMKSSIKQEPIERKDYIVENEKEKPKSRSKKATNAVDLYVCLLCGSGNDEDRLLLCDGCDDSYHTFCLIPPLHDVPKGDWRCPKCLAQECSKPQEAFGFEQAARDYTLRTFGEMADAFKSDYFNMPVHMVPTELVEKEFWRLVSTIEEDVTVEYGADIASKEFGSGFPVRDGKIKLSPEEEEYLDSGWNLNNMPVMEQSVLAHITADICGMKLPWLYVGMCFSSFCWHIEDHWSYSINYLHWGEPKTWYGVPGYAAEQLENVMKKLAPELFVSQPDLLHQLVTIMNPNTLMTHEVPVYRTNQCAGEFVITFPRAYHSGFNQGFNFAEAVNFCTVDWLPLGRQCVEHYRLLHRYCVFSHDEMICKMASKADVLDVVVASTVQKDMAIMIEDEKALRETVRKLGVIDSERMDFELLPDDERQCVKCKTTCFMSAISCSCKPGLLVCLHHVKELCSCPPYKYKLRYRYTLDDLYPMMNALKLRAESYNEWALNVNEALEAKINKKKSLVSFKALIEESEMKKFPDNDLLRHLRLVTQDAEKCASVAQQLLNGKR
For the protein B1, the Michaelis-Menten constant (Km) (commonly the concentration of substrate that gives half-maximal velocity) (other: 0 μM oxaloacetate) was 5.0 µM; the Km (other: 0 μM succinate) stood at 3.4 µM; the Michaelis constant (Km) (other: KDM5B(1–822), no inhibitor, 5 μM H3K4me2(1–21)) was 3 µM and 2.6 ± 0.6 µM; the Km (other: Table S1, succinate data set, competitive inhibition model) turned out to be 3.01 µM; the Michaelis-Menten constant (Km) (other: Table S2, oxaloacetate data set, competitive inhibition model) turned out to be 5.91 µM.
